Assay results from PMC4110399 (Current Biology, 2014).

Assays:
[1] = target: recombinant VPS35/VPS29 complex (wild type) (UniProt Q96QK1 1-796; Q9UBQ0 1-182); assay: ITC; FAM21 R20-21 titrated into the VPS35/VPS29 complex; three experiments for each complex with two independently prepared protein samples; global fitting with SEDPHAT; details: both partners purified
[2] = target: recombinant VPS35(D620N)/VPS29 complex (UniProt Q96QK1 1-796; Q9UBQ0 1-182, D620N); assay: as above; details: both partners purified

Binder | Kd [1] | stoichiometry N [1] | Kd [2]
FAM21 R20-21 fragment (domain or fragment, Limits not printed (construct is in cited ref 16); taken as the C-terminal tail spanning LFa motifs 20-21. The LFa 20/21 positions are recalled from the entry's annotation and not shown in the …) KSKKKVEAKSIFDDDMDDIFSTGIQAKTTKPKSRSAQAAPEPRFEHKVSNIFDDPLNAFGGQ | 2.4 µM | 2 R20-21 per VPS35/VPS29 (by the order of the sentence) | 
FAM21 R20-21 fragment (domain or fragment) KSKKKVEAKSIFDDDMDDIFSTGIQAKTTKPKSRSAQAAPEPRFEHKVSNIFDDPLNAFGGQ |  |  | 4.6 µM
